From patent WO2012172495A1 (dated 2012) come the findings set out here.

The target of test [1] is T1, human TEM8 on transfected HEK-293 cells (293/Flag-hTEM8) (human, UniProt Q9H6X2 33-564).
T1 construct: also called HEK-293 transfected with human TEM8
Description: immunofluorescence microscopy, 10 ug/ml Fab on HEK-293 cells transfected with human TEM8, against untransfected HEK-293.

The target of test [2] is T2, purified recombinant hTEM8(ED)-Fc fusion protein, biotinylated (human, UniProt Q9H6X2 33-321, biotinylated (site not stated)).
T2 construct: also called human TEM8-Fc
T2 sequence: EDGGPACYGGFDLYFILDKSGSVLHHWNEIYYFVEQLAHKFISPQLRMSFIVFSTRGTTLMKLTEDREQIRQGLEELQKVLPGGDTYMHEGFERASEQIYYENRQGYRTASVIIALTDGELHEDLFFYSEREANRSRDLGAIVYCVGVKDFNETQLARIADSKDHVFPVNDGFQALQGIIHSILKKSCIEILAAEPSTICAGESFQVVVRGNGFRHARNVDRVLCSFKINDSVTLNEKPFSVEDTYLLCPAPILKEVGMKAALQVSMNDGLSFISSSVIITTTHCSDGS
Put plainly: ELISA, Fab on biotinylated human TEM8-Fc. A general note: ELISA stands for enzyme-linked immunosorbent assay.

B1: L5 Fab fragment (Anti-human TEM8_cl4) (Fab, V domains shown)
VH: QVQLVESGGGLVQPGGSLRLSCAASGFTFNSYGLSWVRQAPGKGLEWVSNISSNGSYTYYADSVKGRFTISRDNSKNTLYLQMNSLRAEDTAVYYCARAGYGLFDVWGQGTLVTVSS
VL: DIELTQPPSVSVAPGQTARISCSGDKLREYYVHWYQQKPGQAPVLVIYGDNKRPSGIPERFSGSNSGNTATLTISGTQAEDEADYYCSSWAGSRSGTVFGGGTKLTVL
notes: Tested as a purified Fab fragment; The light chain is lambda
As to B1, the binding result in test [1] and in test [2] was “binds” throughout.
